The results in this text go back to patent US9878051.

This assay concerns the target fetuin. The assay is described as follows: ELISA on coated fetuin, OS-PT at 20 µg/ml, detection with anti-PT serum. In general terms: ELISA stands for enzyme-linked immunosorbent assay.

Turning to “OS-PT conjugate: B. pertussis 186 LOS-derived oligosaccharide coupled to pertussis toxin by reductive amination (oligosaccharide content not specified at the place) (from UniProt P04977 35-269; P04978 28-226; P04979 29-227; P0A3R5 43-152; P04981 35-133)”, the absorbance at A405 nm stood at 0.117 A405 nm.
